# Experiments:
# Can1 wild type = target: T1, Can1 wild type (UniProt Q53W14 =ME+3-636+=LE, internal_change); experiment: SAXS; EMSA: 100 nM 32P-cA4, 20 mM MES pH 6.5, 100 mM NaCl, 1 mM EDTA, 5 mM MnCl2, 2 uM BSA, 10 min at room temperature; 15% native acrylamide, 1x TBE; details: protein: recombinant; tags: N-terminal His tag removed by TEV; C-terminal Leu-Glu added by cloning; cyclic single strand of 4 nt
# T1 sequence: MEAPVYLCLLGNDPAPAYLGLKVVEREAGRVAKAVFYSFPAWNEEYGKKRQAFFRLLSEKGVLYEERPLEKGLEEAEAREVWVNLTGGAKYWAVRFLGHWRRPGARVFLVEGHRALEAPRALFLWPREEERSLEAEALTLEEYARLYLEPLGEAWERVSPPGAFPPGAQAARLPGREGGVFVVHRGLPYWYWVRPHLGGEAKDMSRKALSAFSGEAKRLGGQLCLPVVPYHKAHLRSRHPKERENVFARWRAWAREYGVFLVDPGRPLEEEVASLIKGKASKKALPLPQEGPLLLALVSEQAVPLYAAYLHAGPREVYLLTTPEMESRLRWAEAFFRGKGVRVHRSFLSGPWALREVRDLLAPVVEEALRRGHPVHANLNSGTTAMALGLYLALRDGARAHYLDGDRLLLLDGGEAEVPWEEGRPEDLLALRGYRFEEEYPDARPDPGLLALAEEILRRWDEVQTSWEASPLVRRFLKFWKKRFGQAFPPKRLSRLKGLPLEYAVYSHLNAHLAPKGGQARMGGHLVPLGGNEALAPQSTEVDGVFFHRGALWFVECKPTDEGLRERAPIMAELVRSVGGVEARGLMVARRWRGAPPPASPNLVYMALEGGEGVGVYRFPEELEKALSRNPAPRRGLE
# Can1 SeMet = target: T2, Can1 SeMet (UniProt Q53W14 =ME+3-636+=LE, internal_change); experiment: X-ray crystallography (1.83 A); EMSA: 100 nM 32P-cA4, 20 mM MES pH 6.5, 100 mM NaCl, 1 mM EDTA, 5 mM MnCl2, 2 uM BSA, 10 min at room temperature; 15% native acrylamide, 1x TBE; details: protein: recombinant; tags: N-terminal His tag removed by TEV; C-terminal Leu-Glu added by cloning; cyclic single strand of 4 nt
# T2 sequence: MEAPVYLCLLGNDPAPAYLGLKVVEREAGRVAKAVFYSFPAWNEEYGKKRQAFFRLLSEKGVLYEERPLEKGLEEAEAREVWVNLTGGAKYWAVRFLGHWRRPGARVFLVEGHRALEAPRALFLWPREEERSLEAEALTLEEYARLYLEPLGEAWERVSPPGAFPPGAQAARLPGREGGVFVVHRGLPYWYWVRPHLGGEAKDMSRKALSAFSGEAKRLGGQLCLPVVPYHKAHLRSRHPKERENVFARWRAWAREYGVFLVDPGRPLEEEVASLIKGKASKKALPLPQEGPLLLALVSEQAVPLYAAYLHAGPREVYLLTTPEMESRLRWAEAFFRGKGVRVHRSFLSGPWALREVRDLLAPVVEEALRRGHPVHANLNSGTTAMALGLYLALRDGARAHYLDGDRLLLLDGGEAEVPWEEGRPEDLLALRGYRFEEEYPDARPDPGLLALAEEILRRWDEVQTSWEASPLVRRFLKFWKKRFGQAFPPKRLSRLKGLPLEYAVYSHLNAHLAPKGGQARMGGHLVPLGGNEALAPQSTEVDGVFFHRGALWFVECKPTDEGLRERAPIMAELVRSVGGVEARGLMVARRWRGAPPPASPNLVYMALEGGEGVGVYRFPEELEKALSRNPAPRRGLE
binder,measurement,setting,value
"AAAA (structured_RNA, cyclic oligoribonucleotide, no free ends) [cA4 (cyclic tetra-adenylate), unlabelled]",binding result,Can1 wild type,binds
same,binding result,Can1 SeMet,binds

# From publication PMC6981274, “Structure and mechanism of a Type III CRISPR defence DNA nuclease activated by cyclic oligoadenylate” (Nature Communications, 2020)
